B1: Nanobody No. 12 (VHH)
VHH: QVQLQESGGGSVQAGETLRLSCTASGFTFDDSDMGWYRQAPGNECELVSTISSDGSTYYADSVKGRFTISQDNAKNTVYLQMNSLKPEDTAVYYCAADGHKYELGTCAALDYWGRGTQVTVSS
notes: also called 12; not shown: tags (HA, His) implied by anti-HA detection and nickel column
B2: Nanobody No. 28 (VHH)
VHH: QVQLQESGGGLVQPGGSLRLSCAASGFTFGDSGMGWYRQAPGNECELVSSVSSDGSTYYADSVKGRFTISQDNAKNTVYLRMNSLKPEDTAVYYCAADDHKYELGTCEALDYWGRGTQVTVSS
notes: also called 28; not shown: tags (HA, His) implied by anti-HA detection and nickel column
B3: Nanobody No. 15 (VHH)
VHH: QVQLQESGGGSVQAGGSLRLSCTASRFTFDDSDMGWYRQAPGNECELVSTISSDGATYYANSVKGRFTISQDNAANTVYLQMNSLKPEDTAVYYCAALEWEYELGTCEALDYWGQGTQVTVSS
notes: also called 15; not shown: tags (HA, His) implied by anti-HA detection and nickel column
B4: Nanobody No. 8 (VHH)
VHH: B1 VHH with D31E, D33V, A60S, D61N, G99D, K101T, A108E, D111N
notes: not shown: tags (HA, His) implied by anti-HA detection and nickel column
B5: Nanobody No. 16 (VHH)
VHH: B3 VHH with R26G, G35V, T50R, A56S, N61D, A75K
notes: also called 16; not shown: tags (HA, His) implied by anti-HA detection and nickel column
B6: Nanobody No. 20 (VHH)
VHH: QVQLQESGGGSVQAGGSLRLSCTASGFTFDDSVMGWFRKAPGNECELVSTISSDGSTYYADSVKGRFTISQDNAKNTVYLQMNNLKPEDTAVYYCAAINSGYELGTCESLDYWGRGTQVTVSS
notes: also called 20; not shown: tags (HA, His) implied by anti-HA detection and nickel column
B7: Nanobody No. 14 (VHH)
VHH: B1 VHH with T50R, D98L, G99E, H100W, K101E, A108E, R115Q
notes: also called 14; not shown: tags (HA, His) implied by anti-HA detection and nickel column
B8: Nanobody No. 30 (VHH)
VHH: B1 VHH with S56R, T68A, D72N, G99Q, K101R, E103G, A108E
notes: also called 30; not shown: tags (HA, His) implied by anti-HA detection and nickel column
B9: Nanobody No. 11 (VHH)
VHH: B1 VHH with T50H, D54G, H100S, K101N
notes: also called 11; not shown: tags (HA, His) implied by anti-HA detection and nickel column
B10: Nanobody No. 2 (VHH)
VHH: B1 VHH with T77A, D98H, G99P, H100L, K101H
notes: as for B4
B11: Nanobody No. 1 (VHH)
VHH: B1 VHH with D98H, G99P, H100L, K101H
notes: as for B4
B12: Nanobody No. 19 (VHH)
VHH: QVQLQESGGGSVQAGGSLRLSCTASGFTFDDSDSDMGWYRQAPGNECELVSSISSDGSTYYADSVKGRFTISQDNAKNTVYLQMNSLKPEDTAVYYCAAINSGYELGTCESLDYWGRGTQVTVSS
notes: also called 19; not shown: tags (HA, His) implied by anti-HA detection and nickel column
B13: Nanobody No. 25 (VHH)
VHH: B12 VHH with G16E, S17T, L87P
notes: also called 25; not shown: tags (HA, His) implied by anti-HA detection and nickel column
B14: Nanobody No. 24 (VHH)
VHH: B12 VHH with G16E, S17T
notes: also called 24; not shown: tags (HA, His) implied by anti-HA detection and nickel column
B15: Nanobody No. 21 (VHH)
VHH: B12 VHH with S11L, A14P, G15R
notes: also called 21; not shown: tags (HA, His) implied by anti-HA detection and nickel column
B16: Nanobody No. 4 (VHH)
VHH: QVQLQESGGGLVQPGGSLRLSCTASRFTFDDSDMAWYRQAPGNECELVSIISSDGSTYYADSVKGRFTISLDNTKSTVYLQMNSLKPEDTAVYYCAAHPLHYELGTCAALDYWGRGTQVTVSS
notes: as for B4
B17: Nanobody No. 6 (VHH)
VHH: QVQLQESGGGSVQAGETLRLSCTASGFTFDDSDMGWYRQAPGNECELVSHISSDGSTYYADSVKGRFTISQDNAKNTVFLQMNSLKPEDTAVYYCAADKDARGYELGTCESLDYWGRGTQVTVSS
notes: as for B4
B18: Nanobody No. 7 (VHH)
VHH: B17 VHH with H50T, F79Y
notes: as for B4
B19: Nanobody No. 3 (VHH)
VHH: QVQLQESGGGSVQAGGSLRLSCTASGFTFDDSDVRWYRQAPGRECKLVSSISSDRSAYYEDSVKGRFTISQDNAKNTVYLQMNSLKPEDTAVYYCAAHPLHYELGTCAALDYWGRGTQVTVSS
notes: as for B4
B20: Nanobody No. 5 (VHH)
VHH: QVQLQESGGGSVQAGGSLRLSCTVSGFSFDDSDMGWYRRAPGNECELVSGISRDGSTYYADSVKGRFTISQDNAKNWVYLQMNSLKPEDTAVYYCAAATYSDYVCDYWTQGTQVTVSS
notes: as for B4
B21: Nanobody No. 31 (VHH)
VHH: QVQLQESGGGSVQAGETLRLSCTASGFTFNDSNMGWYRQAPGHECELVSTISSDGSTYYADSVKGRFTISQNNARNTVYLQMNSLKPEDTAVYYCAGDWGYELGICTSLDYWGQGTQVTVSS
notes: also called 31; not shown: tags (HA, His) implied by anti-HA detection and nickel column
B22: Nanobody No. 27 (VHH)
VHH: QVQLQESGGGSVQAGETLRLSCTASGFTFDDSDMGWYRQAPGNECELVSTISSDGSTYYADSVKGRFTISQDNAKNTVYLQMNSLKPEDTAVYYCAADHGGGYELGTCAALDYWGRGTQVTVSS
notes: also called 27; not shown: tags (HA, His) implied by anti-HA detection and nickel column
B23: Nanobody No. 18 (VHH)
VHH: QVQLQESGGGSVQAGQTLRLSCTASGFTFDDSDMAWYRQAPGNECELVSKMRSDGSTYYADSVKGRFTISQDNAKNTVYLQMNSLKPEDTAVYYCAEDLPYGLGTCTSLDYWGRGTQVTVSS
notes: also called 18; not shown: tags (HA, His) implied by anti-HA detection and nickel column
B24: Nanobody No. 29 (VHH)
VHH: QVQLQESGGGSVQAGGSLRLSCTASGFTFDDLDMRWYRQAPGNECELVSIINSDGRTYYADSVKGRFAISQNNAKNTVYLQMNSLKPEDTAVYYCAADQHRYGLGTCEALDYWGRGTQVTVSS
notes: also called 29; not shown: tags (HA, His) implied by anti-HA detection and nickel column

Numbering of substitutions follows the chain as printed.

One test addresses T1, human Her2 (ECD)-Fc protein (human, UniProt P04626 23-652).
T1 construct: extracellular domain; Made in HEK293F cells; also called hHer2 (ECD)-Fc antigen; Her2 (ECD)-Fc antigen; not shown: TEV restriction site at the C-terminal of hHer2 (ECD); IgG1 Fc of the pFUSE-IgG1 vector
Briefly: PE-ELISA, crude extract on antigen-coated plate. As for the experimental part:
(§1) (1) 10 μg Her2 (ECD)-Fc antigen (10 μg Fc in NaHCO₃ as control) dissolved in 100 mM NaHCO₃ (pH 8.2) was coupled to a NUNC plate then incubated at 4° C. overnight.
(§2) (5) The unbound antibody was washed off with PBST.
(§3) (6) When the OD value of the sample was over 3 times of the OD value of the control sample (Ratio+/−>3), the tested sample was determined to be a positive clone. […] Then all the positive clones were transferred to LA medium for plasmid extraction and sequencing.
Background: An ELISA detects its analyte on a solid surface through an enzyme-linked reagent.
Regarding B1, the “A405+” value came to 2.18 A405.
The same measure, in the same setting: the same measure for B2: 1.86 A405.
On the same count and under the same terms, then B3, with 2.27 A405; and B4, with 2.56 A405; and B5, with 1.79 A405.
The same measure, in the same setting: the same measure for B6: 1.47 A405; for B7: 1.96 A405; for B8: 2.31 A405.
As to B9, the “A405+” value worked out at 1.88 A405.
The same measure, in the same setting: the same measure for B10: 1.53 A405; for B11: 1.72 A405; for B12: 1.77 A405.
On the same count and under the same terms, the same measure for B13: 1.97 A405; for B14: 2.68 A405; for B15: 2.09 A405.
Still for that read-out and setting: then B16, with 1.97 A405.
With B17, the “A405+” value came out at 2.14 A405.
On the same count and under the same terms, then B18, with 2.24 A405; and B19, with 1.31 A405.
Take B20: the “A405+” value turned out to be 1.1 A405.
Turning to B21, the “A405+” value was found to be 1.65 A405.
Same read-out and setting: the same measure for B22: 1.66 A405.
Still for that read-out and setting: the same measure for B23: 1.59 A405; for B24: 1.48 A405.

The target of the next test is T1, human Her2 (ECD)-Fc protein. As to the kind of experiment: PE-ELISA, A405 of antigen well over control well. As for the experimental part: as §1, §2, §3
Turning to B1, the “Ratio(+/-)” value turned out to be 25.6.
Same read-out and setting: then B2, with 23.3.
On the same count and under the same terms, then B3, with 26.1; and B4, with 28; and B5, with 23.5.
Same read-out and setting: then B6, with 10.2.
For the molecule B7, the “Ratio(+/-)” value came to 24.4.
On the same count and under the same terms, then B8, with 23.9; and B9, with 25.5; and B10, with 19.3.
The same measure, in the same setting: the same measure for B11: 22.3.
The same measure, in the same setting: the same measure for B12: 19.6; for B13: 22.4.
Consider B14, for which the “Ratio(+/-)” value came out at 23.7.
For the molecule B15, the “Ratio(+/-)” value was 20.3.
The same measure, in the same setting: then B16, with 21.2.
The same measure, in the same setting: the same measure for B17: 23.4; for B18: 27.4.
Same read-out and setting: then B19, with 13; and B20, with 12.7.
In the case of B21, the “Ratio(+/-)” value is 21.4.
The same measure, in the same setting: the same measure for B22: 20.5.
For the molecule B23, the “Ratio(+/-)” value was found to be 19.2.
In the case of B24, the “Ratio(+/-)” value was 18.8.

The record behind these values is patent US20230263916A1 (NANOMAB TECHNOLOGY, published 2023).
